Test results from patent US9249224B2 (RINAT NEUROSCIENCE CORP., priority 2011, dated 2016).
Structures can show the parent of a compound that is named as a salt. Marks after values point to notes of the source that are not given here. Values belong to the molecule of their own block, whether it stands above or below them.

Legend:
cyno GHR = assay: STAT5 phosphorylation in vitro assay, cyno GHR-transfected HEK293 cells; type: cell-based, cynomolgus monkey; conditions: for fluorescent signal ave (phospho-STAT5): Table 8, cyno GHR-transfected cells
Method: This Example illustrates the effect of GHR antibodies in an in vitro STAT5 phosphorylation assay. In this Example, the ability of GHR antibodies to block GHR downstream signaling was tested in vitro using human GHR overexpressing cells and cyno GHR overexpressing cells.
GHR antagonist antibody Ab13 was tested for its ability to block STAT5 in an in vitro assay. HEK293 cells were transiently transfected with either DNA encoding full-length human GHR (SEQ ID NO: 140) or DNA encoding full-length cyno GHR (SEQ ID NO: 141). Cells were cultured in freestyle media for approximately 60 hours before testing. Cells were washed with DPBS (Dulbecco's Phosphate-Buffered Saline) and resuspended in Freestyle media, then counted using a hemocytometer. 1×10^6 cells were seeded per well in 6-well plates in 2 mls of Freestyle media. Cells were incubated for 2 hours at 37° C., then treated with 5, 50, or 500 nM Ab13 antibody in media. Cells were incubated at 37° C. with gentle mixing for 5 min with antibodies. 4.5 nM GH (Genotropin) was then added to all but control wells. Cells were incubated with GH at 37° C. with gentle mixing for 10 minutes.
Following incubation with GH, 2 ml of ice cold DPBS with 1× protease inhibitor cocktail (Roche) and 1 mM sodium orthovanadate (BioLabs) were added to each well and the plates were placed on ice. Cells were transferred to 5 ml tubes and spun down to create a cell pellet and the wash buffer was aspirated, leaving the cell pellet.
Reagents from Millipore™ MILLIPLEX® MAP Cell Signaling Buffer and Detection Kit (cat. #48-602) were used to lyse and treat the cell pellets. Millipore lysis buffer with 1× protease inhibitor cocktail and 1 mM sodium orthovanadate was added to each pellet at a volume of 200 ul/pellet. Cells were vortexed and incubated for 15 minutes at room temp with occasional vortexing. Millipore Assay buffer 2 with 1× protease inhibitor cocktail and 1 mM sodium orthovanadate was then added to the lysates at 300 ul/well.
Millipore™ MILLIPLEX® MAP Phospho STAT5N8 (Tyr694/699) MAPmate™ beads (Cat. #46-641) were resuspended in Assay Buffer 2 (from Millipore™ kit cat. #48-602) and loaded on a 96-well filter plate (provided in kit) at 25 ul/well, 25 ul/well of sample lysate was added to the wells and the beads and samples were incubated overnight at 4′C with shaking in the dark.
The liquid was then aspirated using a vacuum manifold and the remaining beads were washed using Millipore™ kit wash buffer. 25 ul Millipore™ kit detection antibody was added and incubated for 1 hour at room temperature with shaking in the dark. The detection antibody was vacuumed through and 25 ul kit streptavidin—Phycoerythrin was added and incubated in the dark for 15 min with shaking. 25 ul kit amplification buffer was then added and incubated for 15 min with shaking in the dark. The liquid was aspirated using a vacuum manifold, and the beads were resuspended in 150 ul kit assay buffer 2 and mixed on a shaker for 5 minutes before reading the plate.
The plate was read using a Luminex™ 200 instrument and fluorescent signal emitted from the samples was measured, The results of the STAT5 assay are shown in Tables 5 and 6. “Ave” indicates the average fluorescent signal, and “SEM” indicates the standard error of the mean.
Antibodies SS3 and SS1 (hIgG2Δa) were tested using a STAT5 phosphorylation assay. For the STAT5 assay, full-length human GHR overexpressing HEK293 cells or full-length cyno GHR-overexpressing HEK293 cells were cultured, counted by automated cell counter, and seeded in warm freestyle media in 12-well plates (5×10^5 cells/well in 1 ml media). Cells were allowed to settle for 3 hours at 37° C. then treated with 2.5, 5, 50, or 500 nM of SS1 or SS3 in media. […] Cells were incubated with GH at 37° C. with gentle mixing for 10 minutes.
Reagents from Millipore™ MILLIPLEX® MAP Cell Signaling Buffer and Detection Kit (cat, #48-602) were used to lyse and treat the cell pellets. […]

CT26 tumors = assay: CT26 syngeneic mouse model of colorectal cancer, tumor volume and weight; type: in vivo; conditions: day 28, BALB/c mice bearing CT26 tumors, Ab11 10 mg/kg, irinotecan 100 mg/kg IP, hydrochloride
Method: The CT26 cell line was used as a syngeneic mouse model of colorectal cancer. Mice were injected with tumor cells and dosed with the Ab11 antibody alone or in combination with iriniotecan.
BALB/c mice (BALB/cAnNCrl) were obtained from Charles River (Hollister, Calif., USA) and maintained in the animal facility at Rinat. […] The mice were housed in microisolators (filter top cages) under pathogen-free conditions with a 12-h light/12-h dark schedule and fed autoclaved standard chow and water throughout the experiment.
Cells were harvested by brief incubation with Accutase (A6964-100ML) (Sigma™ Aldrich, Inc., St. Louis, Mo., USA) and washed in new medium for counting. […]
Mice were dose intraperitoneally (IP) every second to third day. Tumor volume and body weight were measured at least twice a week. […]
The tumors were measured every 2-4 days with a digital caliper (mm). Baseline tumor volumes were calculated using the following formula: V=d2^2×(d½) where d1 was the longest diameter of the tumor and d2 was the perpendicular to d1. At the end of the study, while the study was still blinded, outliers were determined and excluded from all four groups. Tumors that were 3× standard error of the mean < mean and 3× standard error of the mean > mean on all days after day 14 (days 18, 22, 25, and 28) were determined outliers. Tumor weight at the end of the study was also measured.

human GHR = biological target: T1, human GHR (Homo sapiens, UniProt P10912, I544L); assay: STAT5 phosphorylation in vitro assay, human GHR-transfected HEK293 cells; type: cell-based; conditions: for fluorescent signal ave (phospho-STAT5): Table 7, human GHR-transfected cells
T1 construct: expressed in transfected cells; host or cells: HEK293
T1 sequence (P10912 19-638 I544L): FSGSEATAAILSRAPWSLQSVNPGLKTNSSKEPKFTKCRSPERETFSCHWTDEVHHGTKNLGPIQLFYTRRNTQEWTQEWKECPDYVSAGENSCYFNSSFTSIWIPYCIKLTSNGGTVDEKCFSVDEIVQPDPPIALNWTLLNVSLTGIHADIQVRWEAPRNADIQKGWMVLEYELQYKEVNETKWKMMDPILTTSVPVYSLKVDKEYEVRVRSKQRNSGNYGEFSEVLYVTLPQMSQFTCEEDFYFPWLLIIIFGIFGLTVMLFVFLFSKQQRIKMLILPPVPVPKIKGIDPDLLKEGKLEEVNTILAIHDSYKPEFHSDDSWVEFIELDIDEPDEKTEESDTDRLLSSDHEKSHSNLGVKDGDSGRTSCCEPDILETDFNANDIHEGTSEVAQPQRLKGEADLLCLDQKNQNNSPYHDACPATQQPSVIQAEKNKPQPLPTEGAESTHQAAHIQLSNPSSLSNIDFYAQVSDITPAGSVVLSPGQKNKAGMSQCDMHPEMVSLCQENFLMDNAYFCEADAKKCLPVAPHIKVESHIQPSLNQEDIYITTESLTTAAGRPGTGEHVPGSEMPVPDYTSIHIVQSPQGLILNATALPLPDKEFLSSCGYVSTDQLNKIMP
Method: This Example illustrates the effect of GHR antibodies in an in vitro STAT5 phosphorylation assay. In this Example, the ability of GHR antibodies to block GHR downstream signaling was tested in vitro using human GHR overexpressing cells and cyno GHR overexpressing cells. […]
Antibodies SS3 and SS1 (hIgG2Δa) were tested using a STAT5 phosphorylation assay. For the STAT5 assay, full-length human GHR overexpressing HEK293 cells or full-length cyno GHR-overexpressing HEK293 cells were cultured, counted by automated cell counter, and seeded in warm freestyle media in 12-well plates (5×10^5 cells/well in 1 ml media). Cells were allowed to settle for 3 hours at 37° C. then treated with 2.5, 5, 50, or 500 nM of SS1 or SS3 in media.
Millipore™ lysis buffer with 1× protease inhibitor cocktail and sodium orthovanadate was added to each pellet at a volume of 100 ul/pellet Cells were vortexed and incubated for 15 minutes at room temp with occasional vortexing, Millipore™ Assay buffer 2 with 1× protease inhibitor cocktail and 1 mM sodium orthovanadate was then added to the lysates at 200 ul/well.
25 ul/well of sample lysate was added to the wells and the beads and samples were incubated overnight at 4′C with shaking in the dark. […]
The plate was read using a Luminex 200 instrument and florescent signal emitted from the samples was measured.

Chain of cyno GHR (as listed by the source): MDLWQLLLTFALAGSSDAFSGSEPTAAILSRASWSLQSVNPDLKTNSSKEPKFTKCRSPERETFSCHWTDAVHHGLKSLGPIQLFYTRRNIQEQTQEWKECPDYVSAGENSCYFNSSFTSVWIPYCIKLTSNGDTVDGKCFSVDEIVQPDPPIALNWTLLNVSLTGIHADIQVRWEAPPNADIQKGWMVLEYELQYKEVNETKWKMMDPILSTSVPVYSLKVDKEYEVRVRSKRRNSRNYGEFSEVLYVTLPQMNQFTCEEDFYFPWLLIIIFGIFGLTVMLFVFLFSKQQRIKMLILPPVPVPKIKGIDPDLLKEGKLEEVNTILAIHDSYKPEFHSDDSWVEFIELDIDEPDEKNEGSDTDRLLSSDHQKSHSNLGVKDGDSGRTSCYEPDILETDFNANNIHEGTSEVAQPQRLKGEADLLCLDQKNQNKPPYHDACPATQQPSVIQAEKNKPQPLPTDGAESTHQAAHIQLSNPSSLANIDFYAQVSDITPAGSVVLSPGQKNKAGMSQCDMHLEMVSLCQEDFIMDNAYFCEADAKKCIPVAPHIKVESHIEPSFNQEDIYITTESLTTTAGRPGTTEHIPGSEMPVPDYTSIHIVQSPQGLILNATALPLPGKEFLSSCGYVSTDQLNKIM

Molecule: GH: growth hormone, added at 4.5 nM to stimulate STAT5 signaling in GHR-transfected cells [reference compound]
fluorescent signal Ave (phospho-STAT5) (cyno GHR; Table 6, cyno GHR-transfected cells, 4.5 nM GH alone): 562
fluorescent signal ave (phospho-STAT5) (cyno GHR; 4.5 nM GH alone): 847

Molecule: CCc1c2c(nc3ccc(OC(=O)N4CCC(N5CCCCC5)CC4)cc13)-c1cc3c(c(=O)n1C2)COC(=O)[C@]3(O)CC [Irinotecan, Irinotecan hydrochloride]
Tumor weight (in grams), mean (CT26 tumors): 1.2** g
Tumor weight (in grams), mean (CT26 tumors; listed as irinotecan): 1.2 g

fluorescent signal ave (phospho-STAT5) (human GHR; 2.5 nM antibody + 4.5 nM GH): 100
fluorescent signal ave (phospho-STAT5) (human GHR; 5 nM antibody + 4.5 nM GH): 48
fluorescent signal ave (phospho-STAT5) (human GHR; 50 nM antibody + 4.5 nM GH): 0
fluorescent signal ave (phospho-STAT5) (human GHR; 500 nM antibody + 4.5 nM GH): 0
B1: SS3: humanized GHR antagonist antibody; VL SEQ ID NO: 9, VH SEQ ID NO: 10 (antibody, V domains shown)
VH: EVQLVESGGGLVKPGGSLRLSCAASGFTFSDAWMDWVRQAPGKGLEWVAEIRSKANNHATYYAESVKGRFTISRDDSKNTLYLQMNSLKTEDTAVYYCTLFRDYWGQGTLVTVSS
VL: EIVLTQSPGTLSLSPGERATLSCTATSSVSSSYLNWYQQKPGQAPRLLIYSTSNLASGIPDRFSGSGSGTDFTLTISRLEPEDFAVYYCHQYHRFTPTFGGGTKVEIK
modifications: Humanized and/or affinity matured antibody sequence
effect on GH-stimulated STAT5 signaling (human GHR; cells expressing human GHR, 4.5 nM GH): blocked STAT5 signaling in a dose-dependent manner
fluorescent signal ave (phospho-STAT5) (cyno GHR; 2.5 nM antibody + 4.5 nM GH): 621
fluorescent signal ave (phospho-STAT5) (cyno GHR; 5 nM antibody + 4.5 nM GH): 518
fluorescent signal ave (phospho-STAT5) (cyno GHR; 50 nM antibody + 4.5 nM GH): 50
fluorescent signal ave (phospho-STAT5) (cyno GHR; 500 nM antibody + 4.5 nM GH): 8
effect on GH-stimulated STAT5 signaling (cyno GHR; cells expressing cyno GHR, 4.5 nM GH): blocked STAT5 signaling in a dose-dependent manner
